{
  "source": "the DeepSol protein solubility set",
  "data": [
    {"test": "soluble on expression in E. coli; label from the status in PepcDB or PDB records", "values": [
      {"sequence": "MDLFPVLKELAQKTPSKILLIVLDGVGGLPLEPGGPTELEAAKTPNLDRLAEESALGLLTPVYPGLAPGSGPGHLALFGYDPFRYVVGRGALSALGLGADFREGDVALRGNFATLDPEGKVVDRRAGRPPTEENQRVIAKLKEAIPRIEDVEVLFYTESEHRFLVILRGEGLEDKVTDTDPQKTGLPPLKAKALDEASERTARLVNLLSERIREVLKDEPRMNGALFRGASKKPSFPRMQEVYKLTPAAIASYPMYKGLASLVGMEVLPVEGEGDALEGKLKALKENWGRYDFFYFHVKKTDAMGEDGNFHGKVEKVELFDALLPEILALGPDVLAITGDHSTPALLKAHSWHPVPLLLKAPYLRADEARRFTEREAQRGSLGHLRGVELMPLLLAHAGKLLKYGA", "soluble on expression in E. coli": "soluble"},
      {"sequence": "MGSDKIHHHHHHMIYLDQAASSFPKPKEVAEAMVAAVNEYGANPGRGGHRLATQARVTIDETRELLKTLFNAPSKKHVWFYQNATGALNQALFGFPFKEGDHVVSTALEHNSVRRPLEQLRERNGLVITYAQPDEEGIISPEKIAQACTDQTKAIVLSHGSNVTGAYLELEKIGEMAEAHGIVFIVDASQTAGVIDIDMKRDRISMLACAGHKGLLGPQGTGVLIVADDYGLTPLSYGGTGSYSELIDQPSQWPDRYESGTLNTPGIAGLKAGIEYVLDNGVAQIFAHEWALTERLLKGLGAQKVDVYGPPLPRKRLGVVSFRLSGFDSHEVALILDEHYQIAVRAGLHCAPMTHETLQTTDTGLIRVSVGPFNTEREVDQLLQAVMDIQQAFTS", "soluble on expression in E. coli": "not soluble"},
      {"sequence": "MAALIRNLGARAAVAALSAKHVVPAAGSTALRMASTTPVEPKKADKPTVRQPDAVARSHLSDFGRYVAECLPKYVQKVQLTAGDELEVLIAPEGVVPVLQFLKDHHQAQFTNLVDIAGVDVPCRKNRFEVVYNLLSLRYNSRIRVKTYTDELTPLDSACEVHKAANWYEREIWDMYGVFFANHPDLRRILTDYGFEGHPQRRDFPLSGYVELRYDDEKKRVVCEPLELAQEFRKFDLSAPWEQFPNFRNANPPAEVVPPQAPAKK", "soluble on expression in E. coli": "not soluble"},
      {"sequence": "MADKSAYMSAGGYGSGYMGANASSSGYAREDYAQGGAGGSGNQNQGGSGGNTNPGGQVFKARTDQSCYLGP", "soluble on expression in E. coli": "not soluble"},
      {"sequence": "MNKRIVICADGTWNRPEKDLKVDFPTNVLRLARAISPIAADGKPQQVFYDWGVGSYYDEVIGGATGRGLHKNIMDGYRYIVQNYSPGDEIYLFGFSRGAYTVRCLCGLINNCGILKRPEARLIQQAFDHYKKSSAPFAPSGDKSVEFRHEHCHESREIKFVGVWDTVGAMGIPISFLGLFEDKDEFYDTKIGRNVRVARHALAIDEHRSDFEPTIWQLRDNMDMQQVWFAGAHSNVGGSYLPDKDGSLLSDNALAWMIAEAERFNLSLEPHLTAGLEHHHHHH", "soluble on expression in E. coli": "not soluble"},
      {"sequence": "MANTLIVGAGWLGTPLAQALLVEGHDVVITRRSQARLDERPSTIANAALLDLNDENAAQKLDEIIQSNHIERIVGAFPPGFRRGSGREYAQQWSTLVKAAKQHAIEKLVMISSTTVYPNLPTDMKEESASLALVQTHPHFSDNAKIMLEAEQSVIDSGINYAILRCSGLFGPDRHPARFAMRLKQVSRKAPANMLHQSDAVAVAQFALDHLSNQIINVTTPHTVSKAEFYQAAITKSGAEISLPPVTEDADKRILADKLVSLGYQFRFNSTLDAL", "soluble on expression in E. coli": "not soluble"},
      {"sequence": "GPGSMRTQTFPQQPRAPGMLPHLSNGAAAPAAPQVPAVQEHTDVVHDTQFDYYGLQLATASSDRTIGIHVARAGAPLNRVATLTGHEGPVWMVSWAHPRFGNLLASASYDQKAIIWKEIRQGAPKWTPVHVIDIHHGSVNAVQWAPEEYGPVVATASSDGTVAITAYRDGCWQPSVKLSNNSNQIAHAMGATSVTFAPFKSELADHVVVASGGCDGHVRLWVSASSPERGLGFELHQVIEAHADWVRDVAFCPTSPASRFVILASCGQDKTVVMYRKPWDQLCAETSEGVSQATEWERSVIEFAEPVWRLSWAPSGEMLVVTNAKSEVFVLREGVDFTEPWIKLPLKDFQQ", "soluble on expression in E. coli": "not soluble"},
      {"sequence": "MSLTEAGDSEGEQSYFVSTPDEYPGGHDREDDGSVYGQIHIEEESTIRYSWQDEIAQGTWRRKMRGDVGGEKPVKVLEVPALSLGGAIGSAHLKEEASGELRAEPTVIEKEIKIPHEFHTSIKGVFSSEPRHQLVEVIGQLEETLPERMKEELSALTRQSQGESGSVSVDVKKVQSAAGGSVTLMAEVNLSQTVDADQLDLEQLSRDEAGEIERAVESVVRESLAKRSSPVPRSEGHHHHHH", "soluble on expression in E. coli": "soluble"},
      {"sequence": "MGSDKIHHHHHHSDDNKTTGATYDPNQPVTVESFMPVEGKLREKVIVKGSNFGTDKSKVKVYFVDEAAERLSTVIGIDNNTLYCLAPRQLPGGNRIKVIVDGKEVTTDGTFKYEQAQNVSTISGSASKDGNDDGDLASAKFKYMWGIAAVGNNTVLAYQRDDPRVRLISVDDNKVTTVHPGFKGGKPAVTKDKQRVYSIGWEGTHTVYVYMKASGWAPTRIGQLGSTFSGKIGAVALDETEEWLYFVDSNKNFGRFNVKTQEVTLIKQLELSGSLGTNPGPYLIYYFVDSNFYMSDQNLSSVYKITPDGECEWFCGSATQKTVQDGLREEALFAQPNGMTVDEDGNFYIVDGFKGYCLRKLDILDGYVSTVAGQVDVASQIDGTPLEATFNYPYDICYDGEGGYWIAEAWGKAIRKYAVE", "soluble on expression in E. coli": "not soluble"},
      {"sequence": "MSLSHAETIKLGMSIPLSGSGANWGKGSEWLCAKAAEEIKAAGGVKVQGKVYDFECVGYDNKYNAAEGAKVAQALVSRDGVKYVAGSIGVAPVRALQSLTERRGVLLFTAAWGNSIKGPKFPLTFTQMNSVNEISEPMIAHVKKLHPEIKTVVLLNPNDATGQETEKVAKAAWEKNGVKVLASDWYERGTSEFQPIAAKLNSLKPDLVDLASTPPADAGLVFRELKALGWNGVKVVEVGTGADGLLATGKDAVDGTYLGAAVAVDGLSAHQKALNDGVKKVTGENINSVQIGFYDSVYAIKAAMEKAQSVDPQQVAKVMPDVKFQSFFGEVDFGGKSVYGSDQQMQLPVIITQISGTALKEVGRVQKEGHHHHHH", "soluble on expression in E. coli": "soluble"},
      {"sequence": "MPPQKSKALWYAQLELGFRFDGQRTIMNHRKHHGPVRVQKMLWPEKTGVCHAIIVHPPAGIAGGDHLTFQVSTERKAHAVVTTPGAGKWYKTNGKQAFQHIYLNIANDSTLEWLPQETMLFDAAYAQSETIIHLDQTASFMGWDMLVLGRQARLETFEQGCYANRFKLYRNHKLLVADTLRFKGKDRWLSSCLGMNGHAVMGSFWAVAPEKYRATLYLEQHIELIRELMMRMDVPVTLTLLDDVVCARFLGDDVRACHDAFAAIRARLRRYWFDLDEEFPRIWRTLEHHHHHH", "soluble on expression in E. coli": "not soluble"},
      {"sequence": "MKSYHKELWMEVPSRMDFVNITRDVSRALDESGIREGLCLVNAMHITASVFINDDEPGLHADYKQWLEELAPHNPSHYQHNRTGEDNGDAHHKRQIMGREVVVAVTKGELHLGPWEQIFYGEFDGRRRKRVLIKIIGALEHHHHHH", "soluble on expression in E. coli": "soluble"},
      {"sequence": "MGSDKIHHHHHHMRNASIEQYDATPRAVVAMGTDYPDGYLLPRHRHRRAQLLYGASGVMQVRTGDAGWVVPPQRAVWIPPGVEHEVRMLGVSTRSLYIEPGSAMAMPAHCQVLAVSPLLRQLLLAAVDMPLEYDTEGRDGALATLLLHELAAAETLPLHVPLPPEPRWLALCEAFLVEPDIRASAERWAGLLHTSLRSFNRTFRRYTGLSFGAWKQRACVVQALARLAGGETVTAIALDCGYQSPAAFSTMFRRVLGQPPSAFQAGALRSPGGP", "soluble on expression in E. coli": "not soluble"},
      {"sequence": "GSHMSETDLLMKMVRQPVKLYSVATLFHEFSEVITKLEHSVQKEPTSLLSEENWHKQFLKFAQALPAHGSASWLNLDDALQAVVGNSRSAFLHQLIAKLKSRHLQVLELNKIGSEPLDLSNLPAPFYVLLPESFAARITLLVQDKALPYVRVSMEYWHALEYKGELNDPAANKARKEAELAAATAEQ", "soluble on expression in E. coli": "soluble"},
      {"sequence": "MSEEKKDSSRPPVRNYLKQIDDFFEQTPLRNVIADLNHFFQKGNRLLTFPVDLYEVGEELVVTAELPGIQKEQIQIEIQSEYLKVSVKEEILEEEEQTSHNYYRRERSISEASRLIKLPYSINKKAAKASYQNGVLEIRAPKLPQQHDILSID", "soluble on expression in E. coli": "not soluble"},
      {"sequence": "MSSRKKVRVLLLKNKTVPIDKYELECRSKAFEPIFVPLIKHTHVIQDFRNVLNTIPNYLNTINYIIITSQRTVESLNEAIIPTLTSEQKAALLSKTVYTVGPATANFIRRSGFINVKGGEDAGNGSILADIIIDDLSTDIKACPPSELLFLVGEIRRDIIPKKLHSKGIKVREVVTYKTEELSDGFKRFIHAMKECDEDEVFSDWVVVFSPQGTKEITQYLGDSNRLPGSHLRVASIGPTTKKYLDDNDVTSDVVSPKPDPKSLLDAIELYQRHK", "soluble on expression in E. coli": "soluble"},
      {"sequence": "MNPNHNEGLLELYTQAISLEALKDAEQFLENSLLGKDAQVERLLAQVLIEEQQIETNRKKIAQLRIEKEELEFDCANSDLKSLEQMQAERDELQRKCQPGQHTKSNHKSSEQLLRMKKETDALRAYMKKISQFED", "soluble on expression in E. coli": "not soluble"},
      {"sequence": "MDIMNEKVKKIIEFMDKNSIDAVLIAKNPNVYYISGASPLAGGYILITGESATLYVPELEYEMAKEESNIPVEKFKKMDEFYKALEGIKSLGIESSLPYGFIEELKKKANIKEFKKVDDVIRDMRIIKSEKEIKIIEKACEIADKAVMAAIEEITEGKKEREVAAKVEYLMKMNGAEKPAFDTIIASGYRSALPHGVASDKRIERGDLVVIDLGALYQHYNSDITRTIVVGSPNEKQKEIYEIVLEAQKKAVESAKPGITAKELDSIARNIIAEYGYGEYFNHSLGHGVGLEVHEWPRVSQYDETVLREGMVITIEPGIYIPKIGGVRIEDTILITKNGSKRLTKTERELI", "soluble on expression in E. coli": "soluble"},
      {"sequence": "MSYYHHHHHHDYDIPTTENLYFQGAMGSMNTRNTRSKQRAPCGVSSSVKPRLDLIEQAPNPVYDRHPACITLPERTCRHPLTDLEANEQLGRCEDSVKNRFDRVIPFLQVVAGIPLGLDHVTRVQELAQSSLGHTLPEELLKDNWISGHNLKGIFGYATAKALTAATEQFSRKIMSEKDDSASAIGFFLDCGFHAVDISPCADGRLKGLLPYILRLPLTAFTYRKAYAGSMFDIEDDLAQWEKNELRRYREGVPNTADQPTRYLKIAVYHFSTSDPTHSGCAAHGSNDRAALEAALTQLMKFREAVENAHCCGASIDILLIGVDTDTDAIRVHIPDSKGFLNPYRYVDNTVTYAQTLHLAPDEARVIIHEAILNANRSDGWAKGNGVASEGMRRFIGQLLINNLSQIDYVVNRHGGRYPPNDIGHAERYISVGDGFDEVQIRNLAYYAHLDTVEENAIDVDVGITIFTKLNLSRGLPIPIAIHYRYDPNVPGSRERTVVKARRIYNAIKERFSSLDEQNLLQFRLSVQAQDIGSPIEEVASA", "soluble on expression in E. coli": "soluble"},
      {"sequence": "MGSDKIHHHHHHMISQNSCQINESDLKNLKDWFYRYVRSFYSSDSIIQQAILLKEKHSLRVCNEILNIGKKLDLSHNALRLAEVMALFHDIGRFQQFVRYQTFVDQKSENHGELGVRILKQEKALAALDRDARELILKAISYHNRLTIPENESPICTYFSRLLRDADKLDIYYVVTTCYNSNGTERKAAVELDLPDTPEVSGEILISLIEEKMISLHQLKSLNDFKLLQMAWVYDINYLPTFRMIYERNYLRKIRDTLPGTEEIEQVYCKLISFLKAKL", "soluble on expression in E. coli": "not soluble"},
      {"sequence": "MSLRFNVLKYIRTTKANIQTIAMPLTTKPLSLKINAALFDVDGTIIISQPAIAAFWRDFGKDKPYFDAEHVIHISHGWRTYDAIAKFAPDFADEEYVNKLEGEIPEKYGEHSIEVPGAVKLCNALNALPKEKWAVATSGTRDMAKKWFDILKIKRPEYFITANDVKQGKPHPEPYLKGRNGLGFPINEQDPSKSKVVVFEDAPAGIAAGKAAGCKIVGIATTFDLDFLKEKGCDIIVKNHESIRVGEYNAETDEVELIFDDYLYAKDDLLKWEGHHHHHH", "soluble on expression in E. coli": "not soluble"}
    ]}
  ]
}
